This series deals with the molecule itself. The series can be described thus: crystal structure.

Take LSEGLRESLSSYISLAEDP (domain or fragment, UniProt Q8R4L0 237-255, looked up) [C-terminal tail of mouse SLAP2 (residues 237-255)]: the binding result was “binds”.

These data come from paper doi:10.1101/2020.06.18.159806 (bioRxiv, 2020).
